Data published in the domain aggregation screens of Martell et al. (2025).

Experiment: soluble fraction after stress (log2 fold change); higher = more stays soluble; pooled small domains, quantitative proteomics
Conditions: stress: 75 degC
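Also: 20 min heating vs room temperature control held 20 min.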

Sequence	soluble fraction (log2)
HMSFSQNIGKRIREERLRLNLTQEKLAEDVNLSMAYIGQVERGDRSLTLDNLIIVAKRLGVTIDYLLS	-4.13
HMSFTSQSVLIEIVRGTTQLTPLAAAVGANKREVVLAVHRLKQRGLVVSAGLGQYAATEAGRAFLTAGREV	-3.43
HMSFYSVVISQDGSMLVAENRNEIYSNEELLELASEVNEKTGTIGTIGSLMYYKADKGGYTLITFLDNS	-4.18
HMSGALDTVVGIRMLKLLSTPIEKSKAFQVGIINKDGKKLRDPTSGERQHYTFLNRFVFKVQYALMRS	-0.549
HMSGDYRPLYPNLPESEKSEAFNLLAGSALPARLDDRTGDIMVPADRYYEARMILANAGFAD	0.17
HMSGEMGIIVAKRLPIRSEPDELATRAFVLKAGTRVKIVKHLNGWLEIVHDGKAGYVQDLEVYVRVIG	-0.806
HMSGEPVKSTLPGNVFKILVAVGDSVKKGQRMFVLEAMKMEIDVNAPKDGLVTSIEVQQGQTVANGQILAK	-0.0981
HMSGIESIVIPLKGLDFDMISSTLTPQLKQAIKYDKQSDSIILVGTNAKVNIIAKQVNAMVEVYKLKT	-1.81
HMSGIGTTIKMLRENKNISQEELGNVLGVSDKTISSWEINRTEPKMGIVQLLADYFGVSTDYLIKG	-0.447
HMSGILINGELYKPGEQMSLKQRLSIQARIQMQGEDTVKPEMLKDFYNSGGPLSKEESSEYMKSQN	-0.515
HMSGIQNNFITRLKKVLAPTIGIAEEISDLLNISIDSAYRRIRGETDFTFEEIYIITRKHKISIDEIYG	-3.88
HMSGIVPAAPPLRPDLDIKWHTGDKVRHAKWGEGTIVSVKGEGEETELKIAFPGQGIRPFMQKYAPITR	0.218
HMSGLEDIKKKILEDAGIKKGSVKFVKVDKDYDDGIWKYEIDFVYDGKEYEYEIEVETGKILSRKTEKSD	0.00588
HMSGLVPAIGTKGEEGYIRESDIPGSNVKNPEEALAYMEWLKTQPSELLIPLYDEQGNVIGQFAVS	0.461
HMSGMEKLAIQEIEKEIKSFVKGDILIELTGKNRATAYVSEKNVGALIGKKGERINSIEKRLGVGIDVRPY	-0.23
HMSGMNSDHRVNGNIHTFLIQHDLGTKWSVFTEQLLKQVFRSFLPDKELNFQTTDSTVILKVSLGSDFNEH	-0.0399
HMSGPAEDLLAIEGMDKELAYELAARGIRTRDELADQSLDELEAVPGLDPVRAGQLIMAARAHLFENAGQ	0.0744
HMSGRSVSYSEFMSRVEAGQVSSVTLDGERVEVTGSDGSRYVTIAPSDATLTDKLVAKGVEVRADP	0.462
HMSGSKEQQIVILNNILERQLQAFGLQGNREFPMVTLKNIYNSLSKIIENAGLKNVENYFVNPEQGKQM	-0.0735

Sequence	soluble fraction (log2)
HMSGTFIGGELVKPGEPLTPMQRAAITMGLQMGNTYSPEIMEKYNNAGGSPSKEEFENYQKNKS	0.216
HMSHGFFELKTTQKEALIKLLDSHPNFTHTKTEADLTTAFLKLPMDAEQFNKLLFTNGIVLSHLVKRK	-0.581
HMSHGYVEMQAKDDQVLLAALKNHPWFEKVSIDEETGLTKAILTQPIEAEELNSMLFEKGIVLSHLVKRK	0.288
HMSHISLGQRYKIEGYLQINLKRTQIAKEIGLPKKTVNQEIKRNSNPQTGIYKAEEAHQLYLDRMQKKRK	-0.335
HMSHKYKLTVPETGEGTRVDKFLSSALTELSRTRLKSLIEEGQVTLGGVKLTNPSHRVKSGDELNIEIPVP	0.018
HMSHPNAPLTPEGRRRLAVLIVEDGWTIRRAAERFQVSPATASKWARRYRAGESLTDRSSRP	-1.85
HMSHSDMEEWTDAVRSRRKKLGLTQVQIARRLGVTSHHFSQIESGRTIPSASLQIEIDRLLKNWND	-1.73
HMSHSVLIDISQLRIGMYIQLDVGWMHHPFPVSSFRVASLEQIEALRTLNLAQVRYFPAKSDPV	-3.51
HMSIAEMSGARKSAILLLALDEDSAAEIFKYLSAGEVQEISMEMAKLNQVSHDDMKAVLEAFHKETEEFV	-0.821
HMSIAKIIGDRIRAYRNQKGWSQEYLAEKADVHHTYIGQLERGEKNATIESISKIAGALGVSLSRLFEN	-0.659
HMSIEHVPGYTTLSKREQEIVHALLTRKTPEELADDLSISINTLNKHISHIYHKLGIRGRMQLFDYA	-1.1
HMSIEIKTIDVKHADLFQLQDILRNLYPELNIVPDQRNNKLILQGKRELLVEAERLTLQLDTE	0.248
HMSIESPEEFNAKFPPGSEIYATNIQKNAIVQSPANAKGDVEILANSMRLTINFRFISKRDT	-1.6
HMSIGPQMAGRRVLSGDLIARLEAFEGTVVLGRGVAREDALLIATQAGHVRWEPASRRLWVDSTA	-2.38
HMSIHPRDKADLGTALSKWKKGALDDKQLELEVARVFMRTYGKKLEGQALNKAVAAWVAALTQSKK	-0.171
HMSINIDEEKKILGPNADQIIKGITTWGQGLVSKGIWSDADFEEFKIFAATGNGINALNKVRKYY	-0.338
HMSIQMPDLSITPVTDAKKKIESLQLQYKEVGEYNDSVIAGYVIRTEPASGSYLNEDEEVIIYVSKG	-0.776
HMSISEFNYTEFNGLVEKGQVSEVTISGREIEGRLTSGESFKTYSPETDNSALVGDLLKNNVKINGKP	0.0159
HMSITKDNLSIGTNIRISGFSDIGRIISIPNKGNQVQVQIGSAKMNIKINSIVEIIKEEKDFNKNISN	-1.48
